Data taken from paper PMC5024704.

What was measured:
[1] = target: SgcC FADH2-dependent monooxygenase (Streptomyces globisporus); test: SEC
[2] = target: SgcE6 flavin reductase (Streptomyces globisporus); test: SEC

stoichiometry N [1]	stoichiometry N [2]	Substance
4		SgcC FADH2-dependent monooxygenase (enzyme)
	2	SgcE6 flavin reductase (enzyme)
